Results on two molecules are retold here after patent CN117430709A (KANGWEI ZHONGHE ZHONGSHAN BIOLOGICAL PHARMACEUTICAL CO LTD; …, dated 2024).

The target of the test is T1, BCMA on multiple myeloma cell lines RPMI8226 (low BCMA) and U266 (high BCMA) (human, UniProt Q02223 1-184).
T1 construct: whole, on cells; endogenous expression; also called CD269; TNFRSF17
T1 sequence (looked up): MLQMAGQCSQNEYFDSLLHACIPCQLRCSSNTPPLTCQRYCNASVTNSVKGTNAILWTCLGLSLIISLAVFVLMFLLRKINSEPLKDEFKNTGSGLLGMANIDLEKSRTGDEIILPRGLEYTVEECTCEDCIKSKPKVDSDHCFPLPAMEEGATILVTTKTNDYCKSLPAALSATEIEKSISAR
In words: flow cytometry on RPMI8226 cells (low BCMA), anti-his-FITC.

B1: NbBCMA-8 (VHH)
VHH: QVQLVESGGGLVQAGGSLRLSCAASTRTFSSYVMAWFRQVPGKEREFVASRACSGGTPYYADSVKGRFFISRDDAKNTVYLRMNSLKPEDTAVYYCAAASIGATQYDYWGQGTQVIVSS
notes: Expressed in E. coli from PET30a(+); the supernatant of sonicated bacteria was used in flow cytometry; not shown: His tag from the PET30a(+) vector (detected with anti-his-FITC)
As for B1, the binding result is given as “binds”.

B2: NbBCMA-5 (VHH)
VHH: QVQLVETGGGLVQAGGSLRLSCAASGTIFSVYNMGWFRQAPGKQRELVAAITKNGSTSYKDSVKGRFTISTDNAKNTVDLRMSSLKLGDTAVYFCAAWDWDKNQAYWGQGTQVTVSS
notes: as for B1
As for B2, the binding result is reported as “binds”.
